Columns and labels:
[1] = biological target: the molecule itself; assay: self-association; Sephadex 200 sizing column, fractions assayed for pNB activity; standards 669 kDa 16 ml, 158 kDa 24 ml, 43 kDa 26 ml, 14 kDa 32 ml
[2] = biological target: S279_M70aE8 metagenomic GDSL-type esterase; assay: as above

Row | Binder | elution volume [1] | elution volume [2]
1 | Salmonella typhimurium Stm (AAC38796) (enzyme, Described as an outer membrane localized autotransporter protein; also called Sty) FDSLTVIGDSLSDTGNNGRWTWDSGQNKLYDEQLAERYGLELSPSSNGGSNYAAGGATATPELNPQDNTADQVRQWLAKTGGKADHNGLYIHWVGGNDLAAAIAQPTMAQQIAGNSATSAAAQVGLLLDAGAGLVVVPNVPDISATPMLLEAVITAGLGAAAPPALKAALDALAEGATPDFASRQQAIRKALLAAAATVSSNPFIQQLLVEQLLAGYEAAAGQASALTDYYNQMEEKGLEQHGGNIARADINGLFKEILANPQAFGLTNTVGMACPPGVSASACSSAMPGFNASQDYVFADHLHPGPQVHTIIAQYIQSIIAAPVQATYLNQSVQSMAQGSRTTLDSRYQQLRQGENPVGSLGMFGGYSGGYQRYDNNEADGNGNHNNLTVGVDYQLNEQVLLGGLIAGSLDKQHPDDNYRYDARGFQAAVFSHLRAGQAWLDSDLHFLSAKFSNIQRSITLGALRRVEEGETNGRLSGASLTSGYDFVMVPWLTTGPMLQYAWDYSHVNGYSEKLNTSTSMRFGDQNAHSQVGSAGWRLDLRHSIIHSWAQINYRRQFGDDTYVANGGLKSTALTFSRDGKTQDKNWVDIAIGADFPLSATVSAFAGLSQTAGLSDGNQTRYNVGFSARF | 24 mL | 
2 | S261_M2aA12 metagenomic GDSL-type esterase (enzyme, Metagenomic clone; also called pET26_m2aA12) MKNILAFGDSLTWGFVAGQDARHPFETRWPNALAAGLGGKARVIEEGQNGRTTVFDDAATFESRNGSVALPLLLISHQPLDLVIIMLGTNDIKFAARCRAFDASMGMERLIQIVRSANYMKGYKIPEILIISPPSLVPTQDEWFNDLWGHAIAESKLFAKHYKRVAEELKVHFFDAGTVAVADKTDGGHLDAVNTKAIGVALVPVVKSILAL | 24 mL | 
3 | S279_M70aE8 metagenomic GDSL-type esterase (enzyme) MPKIAKLAPSDVIVAFGDSLTFGTGATEAESYPIVLAQLIGRTVVRAGVPGEVTEGGLARLTDVIEEHKPKLIIVCLGGNDMLRKVQEDQTRANLRAIIKTIKAQGIAVVLVGVPKPALVTSAPPFYEEIAKEFGIPYEGKIVTDVLYQRDQKSDSIHPNAKGYRRMAEAIATLLKKSGAI |  | 32 mL
4 | Sinorhizobium meliloti SmeI (SMa1993) (enzyme) MTINSHSWRTLMVEKRSVLCFGDSLTWGWIPVKGSSPTLRYPYEQRWTGAMAARLGDGYHIIEEGLSARTTSLDDPNDARLNGSTYLPMALASHLPLDLVIIMLGTNDTKSYFHRTPYEIANGMGKLVGQVLTCAGGVGTPYPAPKVLVVAPPPLAPMPDPWFEGMFGGGYEKSKELSGLYKALADFMKVEFFAAGDCISTDGIDGIHLSAETNIRLGHAIADKVAALF | 24 mL | 
5 | Mesorhizobium loti Mlo I (Q98MY5) (enzyme, Expressed in E. coli from pET26_Mlo; also called pET26_Mlo; pET26_MlO) MKTVLCYGDSLTWGYNAEGGRHALEDRWPSVLQAALGAGVQVIADGLNGRTTAFDDHLAGADRNGARLLPTVLTTHAPIDLIIFMLGANDMKPWIHGNPVAAKQGIQRLIDIVRGHDYPFDWPAPQILIVAPPVVSRTENADFKEMFAGGDDASKFLAPQYAALADEAGCGFFDAGSVAQTTPLDGVHLDAENTREIGKALTPIVRVMLEL | 24 mL | 
6 | Moraxella bovis Mbo (AAK53448) (enzyme, Described as an outer membrane localized autotransporter protein; also called pET26_Mbo) KEFSQVIIFGDSLSDTGRLKDMVARKDGTLGNTLQPSFTTNPDPVWSSLFAQSYGKTASPNTPDNPTGTNYAVGGARSGSEVNWNGFVNVPSTKTQITDHLTATGGKADPNTLYAIWIGSNDLISASQATTTAEAQNAIKGAVTRTVIDIETLNQAGATTILVPNVPDLSLTPRAIYGESLMAGVQDKAKLASSLYNSGLFEALNQSTANIIPANTFALLQEATTNKEAFGFKNTQGVACQMPARTTGADDVASTSLACTKANLIENGANDTYAFADDIHPSGRTHRILAQYYRSIMDAPTHMGKLSGELVKTGSAHDRHVYRQLDRLSGSQHSIWANVYASDRTDPTTQIGLDVAGSSSHTGAYLSHQNQDYVLDDTLSSDVKTIGMGLYHRHDIGNVRLKGVAGIDRLSVDTHRHIDWEGTSRSHTADTTARRFHAGLQASYGIDMGKATVRPLIGVHAQKVKVNDMTESESTLSTAMRFGEQEQKSLQGEIGVDVAYPISPALTLTGGIAHAHEFNDDERTINATLTSIREYTKGFNTSVSTDKSHATTAHLGVQGQLGKANIHAGVHATHQDSDTDVGGSLGVRLMF | 24 mL | 
7 | Sinorhizobium meliloti SmeII (Q92XZ1) (enzyme, Expressed in E. coli from pET26_SmeII; also called pET26_SmeII) MEETVARTVLCFGDSNTHGQVPGRGPLDRYRREQRWGGVLQGLLGPNWQVIEEGLSGRTTVHDDPIEGSLKNGRTYLRPCLQSHAPLDLIIIMLGTNDLKRRFNMPPSEVAMGIGCLVHDIRELSPGRTGNDPEIMIVAPPPMLEDLKEWESIFSGAQEKSRKLALEFEIMADSLEAHFFDAGTVCQCSPADGFHIDEDAHRLLGEALAQEVLAIGWPDA | 24 mL | 
8 | Sinorhizobium meliloti RSM02162 (G00355) (enzyme, Synthetic gene G00355, expressed in E. coli from pMC355rbs; also called pMC355rbs) MVEKRSVLCFGDSLTWGWIPVKESSPTLRYPYEQRWTGAMAARLGDGYHIIEEGLSARTTSLDDPNDARLNGSTYLPMALASHLPLDLVIIMLGTNDTKSYFHRTPYEIANGMGKLVGQVLTCAGGVGTPYPAPKVLVVAPPPLAPMPDPWFEGMFGGGYEKSKELSGLYKALADFMKVEFFAAGDCISTDGIDGIHLSAETNIRLGHAIADKVAALF | 24 mL | 

Reference: patent publication US8772007 (dated 2014)
